Values belong to the binder of their own block, whether it stands above or below them.
What was measured:
[1] = molecular target: T1, beta amyloid peptide (Aβ) (human, UniProt P05067 672-713, limits assumed); assay: average of ELISA and BIAcore results
T1 construct: also called A-beta; β-amyloid peptide

[2] = molecular target: T1, beta amyloid peptide (Aβ); assay: BIAcore
[3] = molecular target: T1, beta amyloid peptide (Aβ); assay: ELISA competitive binding assay with biotinylated 3D6
… analog, Residue 3 = W = molecular target: T2, … analog, Residue 3 = W; assay: rNET
T2 peptide: DAWFRHDSGY

… analog, Residue 3 = M = molecular target: T3, … analog, Residue 3 = M; assay: rNET
T3 peptide: DAMFRHDSGY

… analog, Residue 3 = N = molecular target: T4, … analog, Residue 3 = N; assay: rNET
T4 peptide: DANFRHDSGY

… analog, Residue 1 = A = molecular target: T5, … analog, Residue 1 = A; assay: rNET
T5 peptide: AAEFRHDSGY

… analog, Residue 1 = M = molecular target: T6, … analog, Residue 1 = M; assay: rNET
T6 peptide: MAEFRHDSGY

… analog, Residue 3 = I = molecular target: T7, … analog, Residue 3 = I; assay: rNET
T7 peptide: DAIFRHDSGY

… analog, Residue 2 = G = molecular target: T8, … analog, Residue 2 = G; assay: rNET
T8 peptide: DGEFRHDSGY

… analog, Residue 2 = C = molecular target: T9, … analog, Residue 2 = C; assay: rNET
T9 peptide: DCEFRHDSGY

… analog, Residue 3 = C = molecular target: T10, … analog, Residue 3 = C; assay: rNET
T10 peptide: DACFRHDSGY

… analog, Residue 2 = F = molecular target: T11, … analog, Residue 2 = F; assay: rNET
T11 peptide: DFEFRHDSGY

… analog, Residue 2 = Q = molecular target: T12, … analog, Residue 2 = Q; assay: rNET
T12 peptide: DQEFRHDSGY

… analog, Residue 8 = R = molecular target: T13, … analog, Residue 8 = R; assay: rNET
T13 peptide: DAEFRHDRGY

… analog, Residue 3 = L = molecular target: T14, … analog, Residue 3 = L; assay: rNET
T14 peptide: DALFRHDSGY

… analog, Residue 1 = S = molecular target: T15, … analog, Residue 1 = S; assay: rNET
T15 peptide: SAEFRHDSGY

… analog, Residue 1 = P = molecular target: T16, … analog, Residue 1 = P; assay: rNET
T16 peptide: PAEFRHDSGY

… analog, Residue 2 = H = molecular target: T17, … analog, Residue 2 = H; assay: rNET
T17 peptide: DHEFRHDSGY

… analog, Residue 1 = N = molecular target: T18, … analog, Residue 1 = N; assay: rNET
T18 peptide: NAEFRHDSGY

… analog, Residue 8 = P = molecular target: T19, … analog, Residue 8 = P; assay: rNET
T19 peptide: DAEFRHDPGY

… analog, Residue 1 = L = molecular target: T20, … analog, Residue 1 = L; assay: rNET
T20 peptide: LAEFRHDSGY

… analog, Residue 1 = F = molecular target: T21, … analog, Residue 1 = F; assay: rNET
T21 peptide: FAEFRHDSGY

… analog, Residue 2 = D = molecular target: T22, … analog, Residue 2 = D; assay: rNET
T22 peptide: DDEFRHDSGY

… analog, Residue 1 = R = molecular target: T23, … analog, Residue 1 = R; assay: rNET
T23 peptide: RAEFRHDSGY

… analog, Residue 2 = N = molecular target: T24, … analog, Residue 2 = N; assay: rNET
T24 peptide: DNEFRHDSGY

… analog, Residue 1 = E = molecular target: T25, … analog, Residue 1 = E; assay: rNET
T25 peptide: EAEFRHDSGY

… analog, Residue 1 = W = molecular target: T26, … analog, Residue 1 = W; assay: rNET
T26 peptide: WAEFRHDSGY

… analog, Residue 8 = N = molecular target: T27, … analog, Residue 8 = N; assay: rNET
T27 peptide: DAEFRHDNGY

… analog, Residue 8 = C = molecular target: T28, … analog, Residue 8 = C; assay: rNET
T28 peptide: DAEFRHDCGY

… analog, Residue 3 = H = molecular target: T29, … analog, Residue 3 = H; assay: rNET
T29 peptide: DAHFRHDSGY

… analog, Residue 2 = T = molecular target: T30, … analog, Residue 2 = T; assay: rNET
T30 peptide: DTEFRHDSGY

… analog, Residue 3 = K = molecular target: T31, … analog, Residue 3 = K; assay: rNET
T31 peptide: DAKFRHDSGY

… analog, Residue 8 = K = molecular target: T32, … analog, Residue 8 = K; assay: rNET
T32 peptide: DAEFRHDKGY

… analog, Residue 1 = H = molecular target: T33, … analog, Residue 1 = H; assay: rNET
T33 peptide: HAEFRHDSGY

… analog, Residue 1 = C = molecular target: T34, … analog, Residue 1 = C; assay: rNET
T34 peptide: CAEFRHDSGY

… analog, Residue 1 = K = molecular target: T35, … analog, Residue 1 = K; assay: rNET
T35 peptide: KAEFRHDSGY

… analog, Residue 2 = R = molecular target: T36, … analog, Residue 2 = R; assay: rNET
T36 peptide: DREFRHDSGY

… analog, Residue 3 = D = molecular target: T37, … analog, Residue 3 = D; assay: rNET
T37 peptide: DADFRHDSGY

… analog, Residue 3 = Y = molecular target: T38, … analog, Residue 3 = Y; assay: rNET
T38 peptide: DAYFRHDSGY

… analog, Residue 1 = Y = molecular target: T39, … analog, Residue 1 = Y; assay: rNET
T39 peptide: YAEFRHDSGY

… analog, Residue 3 = Q = molecular target: T40, … analog, Residue 3 = Q; assay: rNET
T40 peptide: DAQFRHDSGY

… analog, Residue 3 = P = molecular target: T41, … analog, Residue 3 = P; assay: rNET
T41 peptide: DAPFRHDSGY

… analog, Residue 2 = K = molecular target: T42, … analog, Residue 2 = K; assay: rNET
T42 peptide: DKEFRHDSGY

… analog, Residue 2 = I = molecular target: T43, … analog, Residue 2 = I; assay: rNET
T43 peptide: DIEFRHDSGY

… analog, Residue 1 = I = molecular target: T44, … analog, Residue 1 = I; assay: rNET
T44 peptide: IAEFRHDSGY

… analog, Residue 8 = H = molecular target: T45, … analog, Residue 8 = H; assay: rNET
T45 peptide: DAEFRHDHGY

… analog, Residue 1 = G = molecular target: T46, … analog, Residue 1 = G; assay: rNET
T46 peptide: GAEFRHDSGY
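For OD in this document: antibody binding measured against single-substituted peptide analogs, each epitope position replaced by every one of 19 non-native amino acids, compared with binding to the native Aβ peptide.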

fold loss of binding affinity against 3D6 [1]: ~3 fold
Kd [2]: 2.06 nM
koff [2]: 0.000382 s⁻¹
kon [2]: 185000 M⁻¹ s⁻¹
fold less binding affinity than 3D6 [3]: ~6 fold
B1: humanized 3D6 version 1 (antibody, V domains shown)
VH: EVQLLESGGGLVQPGGSLRLSCAASGFTFSNYGMSWVRQAPGKGLEWVASIRSGGGRTYYSDNVKGRFTISRDNAKNSLYLQMNSLRAEDTALYYCVRYDHYSGSSDYWGQGTLVTVSS
VL: YVVMTQSPLSLPVTPGEPASISCKSSQSLLDSDGKTYLNWLLQKPGQSPQRLIYLVSKLDSGVPDRFSGSGSGTDFTLKISRVEAEDVGVYYCWQGTHFPRTFGQGTKVEIK
notes: Human constant regions (light chain vector pCMV-cK); also called humanized 3D6v1; h3D6v1

OD (… analog, Residue 3 = W): 0.304 OD
OD (… analog, Residue 3 = M): 0.027 OD
OD (… analog, Residue 3 = N): 0.032 OD
OD (… analog, Residue 1 = A): 0.643 OD
OD (… analog, Residue 1 = M): 0.072 OD
OD (… analog, Residue 3 = I): 0.024 OD
OD (… analog, Residue 2 = G): 0.72 OD
OD (… analog, Residue 2 = C): 0.694 OD
OD (… analog, Residue 3 = C): 0.41 OD
OD (… analog, Residue 2 = F): 0.717 OD
OD (… analog, Residue 2 = Q): 0.756 OD
OD (… analog, Residue 8 = R): 0.699 OD
OD (… analog, Residue 3 = L): 0.026 OD
OD (… analog, Residue 1 = S): 0.762 OD
OD (… analog, Residue 1 = P): 0.144 OD
OD (… analog, Residue 2 = H): 0.741 OD
OD (… analog, Residue 1 = N): 0.757 OD
OD (… analog, Residue 8 = P): 0.694 OD
OD (… analog, Residue 1 = L): 0.148 OD
OD (… analog, Residue 1 = F): 0.062 OD
OD (… analog, Residue 2 = D): 0.222 OD
OD (… analog, Residue 1 = R): 0.155 OD
OD (… analog, Residue 2 = N): 0.735 OD
OD (… analog, Residue 1 = E): 0.7 OD
OD (… analog, Residue 1 = W): 0.07 OD
OD (… analog, Residue 8 = N): 0.7 OD
OD (… analog, Residue 8 = C): 0.7 OD
OD (… analog, Residue 3 = H): 0.02 OD
OD (… analog, Residue 2 = T): 0.712 OD
OD (… analog, Residue 3 = K): 0.09 OD
OD (… analog, Residue 8 = K): 0.698 OD
OD (… analog, Residue 1 = H): 0.117 OD
OD (… analog, Residue 1 = C): 0.628 OD
OD (… analog, Residue 1 = K): 0.057 OD
OD (… analog, Residue 2 = R): 0.719 OD
OD (… analog, Residue 3 = D): 0.027 OD
OD (… analog, Residue 3 = Y): 0.02 OD
OD (… analog, Residue 1 = Y): 0.498 OD
OD (… analog, Residue 3 = Q): 0.406 OD
OD (… analog, Residue 3 = P): 0.02 OD
OD (… analog, Residue 2 = K): 0.722 OD
OD (… analog, Residue 2 = I): 0.722 OD
OD (… analog, Residue 1 = I): 0.118 OD
OD (… analog, Residue 8 = H): 0.683 OD
OD (… analog, Residue 1 = G): 0.738 OD
Kd [2]: 2.24 nM
B2: humanized 3D6 version 2 (antibody, V domains shown)
VH: EVQLLESGGGLVQPGGSLRLSCAASGFTFSNYGMSWVRQAPGKGLEWVASIRSGGGRTYYSDNVKGRFTISRDNSKNTLYLQMNSLRAEDTAVYYCVRYDHYSGSSDYWGQGTLVTVSS
VL: DVVMTQSPLSLPVTPGEPASISCKSSQSLLDSDGKTYLNWLLQKPGQSPQRLIYLVSKLDSGVPDRFSGSGSGTDFTLKISRVEAEDVGVYYCWQGTHFPRTFGQGTKVEIK
notes: also called humanized 3D6v2; h3D6v2

From patent US20040087777A1 (NEURALAB, published 2004)
